Experimental findings from article PMC6133773 are described below.

Substrate in series [1]: C[C@](O)(CO)[C@H](O)C=CP(=O)(O)O
Nature of the series: purified protein. Conditions: Mg2+; CTP active site (alternative substrate).

Substrate in series [2]: C[C@](O)(CO)[C@H](O)C[C@H](F)P(=O)(O)O
Nature of the series: purified protein. The note with it: Mg2+; CTP active site (alternative substrate).

Substrate in series [3]: C[C@](O)(CO)[C@H](O)CC(F)(F)P(=O)(O)O
Nature of the series: purified protein. Conditions: Mg2+; CTP active site (alternative substrate).

Substrate in series [4]: C[C@](O)(CO)[C@H](O)CCP(=O)(O)O
Nature of the series: purified protein. The note with it: Mg2+; CTP active site (alternative substrate).

Substrate in series [5]: C[C@](O)(CO)[C@H](O)C=C(F)P(=O)(O)O
Nature of the series: purified protein. Conditions: Mg2+; CTP active site (alternative substrate).

Substrate in series [6]: C[C@](O)(CO)[C@H](O)COP(=O)(O)O
Nature of the series: Michaelis-Menten kinetics. The class given is biochemical, Escherichia coli. The note with it: Mg2+; CTP active site; natural substrate.

B1: IspD (Escherichia coli K-12) (protein)
chain: ATTHLDVCAVVPAAGFGRRMQTECPKQYLSIGNQTILEHSVHALLAHPRVKRVVIAISPGDSRFAQLPLANHPQITVVDGGDERADSVLAGLKAAGDAQWVLVHDAARPCLHQDDLARLLALSETSRTGGILAAPVRDTMKRAEPGKNAIAHTVDRNGLWHALTPQFFPRELLHDCLTRALNEGATITDEASALEYCGFHPQLVEGRADNIKVTRPEDLALAEFYLTRTIHQENT
The Km is the concentration of substrate that gives half-maximal velocity. A word on the kcat: it is the number of substrate molecules converted per active site and unit of time at saturation. One may read the kcat/Km as the second-order rate constant that governs catalysis at low substrate concentration. Regarding B1, the Km in the series “purified protein [1]” worked out at 4000 ± 1000 µM; in the series “purified protein [2]” it was 1000 ± 100 µM; in the series “purified protein [3]”, 1900 ± 700 µM; in “purified protein [4]”, 1300 ± 200 µM; in “purified protein [5]” it was 700 ± 500 µM; in series [6], 100 ± 20 µM. In addition, the kcat in the series “purified protein [1]” was 0.09 ± 0.01 s⁻¹; in “purified protein [2]” it was 0.217 ± 0.01 s⁻¹; in “purified protein [3]” it was 0.2 ± 0.0333 s⁻¹; in series [6], 18.2 ± 1 s⁻¹. Further, the kcat/Km came out at 20 M⁻¹ s⁻¹ in “purified protein [1]”, 220 M⁻¹ s⁻¹ in “purified protein [2]”, 110 M⁻¹ s⁻¹ in “purified protein [3]” and 180000 M⁻¹ s⁻¹ in series [6].
